The record followed here is paper PMC12034804.

Assay [1] has as its target enhanced green fluorescent protein (eGFP) [GFP: P42212]. Kind of assay: BLI; ForteBio sensors loaded with 20 nM solutions, baseline in PBS with 1 mg/ml BSA, single concentration of analyte, 1000 rpm, 1:1 binding model, Kd from kd : ka; the section's heading calls it isothermal titration calorimetry; who was on the sensor is not told. On the technique in general: BLI is a label-free optical method that tracks binding on a fibre tip over time.

Assay [2] addresses eGFP-CD24 (CD24 fused with eGFP at the N-terminus), on CHO-CD24 cells (UniProt P25063).
For assay [3] the target is unchanged. This is another data set of the same source.
The target in assay [4] is de-N-glycosylated eGFP-CD24, on CHO-CD24 cells treated with nbGFP-PNGF (UniProt P25063). The assay can be described thus: flow cytometry on cells; CHO-CD24 cells incubated with 5 nM PNGF or nbGFP-PNGF for 2 hours, with or without 50 µM P-3Fax-Neu5Ac; bound enzyme dissociated in acidic buffer (100 mM Glycine, 150 mM NaCl, pH 3.0, 0.1% Tween-20) for 2 min; then human Siglec-10 Fc chimera, biotin anti-human IgG Fc, Cy5-streptavidin.

For the molecule “nbGFP-PNGF (Peptide-N-glycosidase F fused to an N-terminal nanobody against eGFP)”, the Kd (as a rule, the constant that tells how readily two partners part at equilibrium) in assay [1] is 5.58 nM. The molecule further came in with a de-N-glycosylation of eGFP-CD24 on CHO cells (western blot, 2 h): concentration at which it is complete; 500 nM PNGF without the nanobody could not in assay [2] of 5 nM.

B1: recombinant human Siglec-10 Fc chimera (Fc fusion)
chain: MDGRFWIRVQESVMVPEGLCISVPCSFSYPRQDWTGSTPAYGYWFKAVTETTKGAPVATNHQSREVEMSTRGRFQLTGDPAKGNCSLVIRDAQMQDESQYFFRVERGSYVRYNFMNDGFFLKVTALTQKPDVYIPETLEPGQPVTVICVFNWAFEECPPPSFSWTGAALSSQGTKPTTSHFSVLSFTPRPQDHNTDLTCHVDFSRKGVSAQRTVRLRVAYAPRDLVISISRDNTPALEPQPQGNVPYLEAQKGQFLRLLCAADSQPPATLSWVLQNRVLSSSHPWGPRPLGLELPGVKAGDSGRYTCRAENRLGSQQRALDLSVQYPPENLRVMVSQANRTVLENLGNGTSLPVLEGQSLCLVCVTHSSPPARLSWTQRGQVLSPSQPSDPGVLELPRVQVEHEGEFTCHARHPLGSQHVSLSLSVHYSPKLLGPSCSWEAEGLHCSCSSQASPAPSLRWWLGEELLEGNSSQDSFEVTPSSAGPWANSSLSLHGGLSSGLRLRCEAWNVHGAQSGSILQLPDKKGLISTAFSN
Regarding B1, the phagocytosis of CHO-CD24 cells by mouse bone marrow-derived macrophages after treatment with nbGFP-PNGF, against control (flow cytometry) in assay [3] amounted to 0.5 fold. In assay [4], this molecule showed a percent of the CD24/Siglec-10 interaction that is due to the N-glycans (lost on de-N-glycosylation) of over 82%.
